Source: patent US20150098945A1 (Daiichi Sankyo, published 2015)

T1: N-terminal FLAG-tagged cynomolgus monkey ROBO4, cynoROBO4-2 (pCI-FLAG-cynoROBO4-2) (cynomolgus monkey, UniProt Q8WZ75 28-1007 (human entry))
T1 chain: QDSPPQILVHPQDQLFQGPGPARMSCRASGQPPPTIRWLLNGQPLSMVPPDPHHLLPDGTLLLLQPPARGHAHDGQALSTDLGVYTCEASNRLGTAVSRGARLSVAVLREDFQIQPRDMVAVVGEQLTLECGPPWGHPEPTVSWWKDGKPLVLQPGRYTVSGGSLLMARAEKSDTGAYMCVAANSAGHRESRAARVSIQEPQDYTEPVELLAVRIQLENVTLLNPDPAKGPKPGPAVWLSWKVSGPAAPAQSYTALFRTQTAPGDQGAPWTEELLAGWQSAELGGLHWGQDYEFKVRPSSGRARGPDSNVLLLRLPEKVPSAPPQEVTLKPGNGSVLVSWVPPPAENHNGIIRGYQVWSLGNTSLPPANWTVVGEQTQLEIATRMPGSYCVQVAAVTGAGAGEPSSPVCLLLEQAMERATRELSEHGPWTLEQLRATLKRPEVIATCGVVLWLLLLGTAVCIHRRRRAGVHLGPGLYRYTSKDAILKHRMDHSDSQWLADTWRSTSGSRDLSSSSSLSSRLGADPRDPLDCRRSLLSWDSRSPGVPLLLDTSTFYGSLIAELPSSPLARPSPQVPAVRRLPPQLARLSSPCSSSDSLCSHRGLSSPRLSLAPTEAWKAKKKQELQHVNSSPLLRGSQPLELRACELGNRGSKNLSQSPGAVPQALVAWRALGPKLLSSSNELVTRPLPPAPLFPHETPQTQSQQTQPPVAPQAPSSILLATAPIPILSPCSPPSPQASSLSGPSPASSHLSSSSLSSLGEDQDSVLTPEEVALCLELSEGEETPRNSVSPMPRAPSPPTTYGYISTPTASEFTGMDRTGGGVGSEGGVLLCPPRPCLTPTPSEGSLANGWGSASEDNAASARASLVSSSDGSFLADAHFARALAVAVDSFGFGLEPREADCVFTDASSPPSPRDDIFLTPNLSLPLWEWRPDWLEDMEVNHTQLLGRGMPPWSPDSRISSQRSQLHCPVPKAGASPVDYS

B1: humanized MAb1 antibody H-1143 (antibody, human IgG2, kappa, V domains shown)
VH: EVQLVESGGGLVQPGGSLRLSCAASGFTFSTYAMSWVRQAPGKGLEWVATISQGGTYTYYPDSVKGRFTISRDNAKNTLYLQMNSLRAEDTAVYYCARLIYYDYLDYWGQGTLVTVSS
VL: DIVMTQSPLSLPVTLGEPASISCRSSQSLENENKNLYLNWYLQKPGQSPQLLIYRVSNRFSGVPDRFSGSGSGTDFTLKISRVEAEDVGVYYCLQVTHVPWTFGPGTKVDIKR
notes: Human IgG2 / kappa constant regions; also called hMAb1-H2-type heavy chain + hMAb1-L2-type light chain
B2: anti-ROBO4 mouse monoclonal antibody MAb1 (antibody, mouse IgG1, V domains shown)
VH: EVQLVESGGGLVKPGGSLKLSCAASGFTFSTYAMSWVRQTPEKRLEWVATISNGGTYTYYPDSVKGRFTISRDNAENTLYLQMSSLRSEDTAMYFCARLIYYDYLDYWGHGTTLTVSS
VL: DAVMTQTPLSLPVSLGDQASISCRSSQSLENSNGNTYLNWYFQKPGQSPQLLIYRVSNRFSGVLDRFSGSGSGTDFTLKISRVEAEDFGVYFCLQVTHVPWTFGGGTKLEIKR
notes: Mouse IgG1 (gamma1), kappa light chain, purified from hybridoma supernatant; also called parent antibody MAb1

Columns and labels:
[1] = target: T1, N-terminal FLAG-tagged cynomolgus …; assay: flow cytometry (FC500), HEK293 cells transfected with pCI-FLAG-cynoROBO4-2, antibody at 10 µg/mL, FITC goat anti-human IgG Fc; control histogram IgG (human IgG)
[2] = target: T1, N-terminal FLAG-tagged cynomolgus …; assay: flow cytometry, HEK293 cells transfected with pCI-FLAG-cynoROBO4-2, antibody at 10 µg/mL, anti-mouse IgG FITC; control histogram IgG (Mouse IgG2a)
Procedure: HEK293 cells were inoculated at a concentration of 1.5×10⁶ cells/dish to a 60-mm dish (manufactured by Corning Inc.) and cultured overnight in a DMEM medium containing 10% FBS at 37° C. under 5% CO₂ conditions. On the next day, the HEK293 cells were transfected with pCI-hROBO4, pCI-mROBO4, pCI-raROBO4, pCI-FLAG-cynoROBO4-1, pCI-FLAG-cynoROBO4-2, pCI-hROBO1, pCI-hROBO2, or pCI-hROBO3 using FuGENE6 Transfection Reagent and further cultured overnight at 37° C. under 5% CO₂ conditions. On the next day, the expression vector-transfected cells were treated with TrypLE Express (manufactured by Life Technologies Corp.), washed with PBS containing 5% FBS, and then suspended in PBS containing 5% FBS. The obtained cell suspension was used in flow cytometry analysis.
Each cell suspension prepared in 4)-3-1 was centrifuged, and the supernatant was removed. Then, MAb1 or a negative control Mouse IgG2a was added at a concentration of 10 μg/mL to 2×10⁵ expression vector-transfected cells, and the resulting suspension was left standing at 4° C. for 1 hour. […] Data was analyzed using Flowjo. The histogram of FITC fluorescence intensity was prepared. The antibody was determined to bind in a cross-species manner when the histogram of MAb1 was shifted to a stronger fluorescence intensity region compared with the histogram of the negative control Mouse IgG2a.

Row | binding result [1] | binding result [2] | Binder
1 | binds |  | B1
2 |  | binds | B2
